Measured values from paper PMC3199332.

Substrate: CC(C)=CCNc1ncnc2nc[nH]c12
Assay: UV absorbance steady-state kinetics
Type: biochemical, Paraglaciecola sp. T6c
Settings: hydrolytic deamination; compound 1 identified by kcat/Km 1.2 × 10^7

B1: Patl2390 (Paraglaciecola sp. T6c) (protein)
chain: MQTQPLDIQQFISDMPKAELHVHLEGTLEPELSFALAVKNRIPLEFDTPEQLIAAYDFHDLPSFLKIYYAGMNVLIKEEDFYQLTWDYLTKAASENIVYAELFFDPQAHTSRGVSFETIITGIHKAQLDAEQKLGIRSQLIMCFLRELSAESAMEHLKLAMPYLPWLVGVGLDSNERDNPPAKFAEVFEYAKALDLKLTMHCDVNQHNTLVHIKQCLDDIQVDRIDHGVNALQDPALLEKIKHKQLGLTVCPISNRFVVQSLTSNEVRQMLEHELLVTINSDDPAYFRAYLNENFIELQKEGQFSAQEMITLVENAFKVSWLKDTEISQYLYQVSQYVKQAEYQAA
Protein B1 has a kcat of 7.3 ± 0.1 s⁻¹ and a kcat/Km of 1.2e+07 M⁻¹ s⁻¹.
